Tests used:
[1] = biological target: T1, CD154 expressed on D1.1 Jurkat cells (UniProt P29965 1-261, limits assumed); assay: cell-based or functional assay
T1 sequence (looked up): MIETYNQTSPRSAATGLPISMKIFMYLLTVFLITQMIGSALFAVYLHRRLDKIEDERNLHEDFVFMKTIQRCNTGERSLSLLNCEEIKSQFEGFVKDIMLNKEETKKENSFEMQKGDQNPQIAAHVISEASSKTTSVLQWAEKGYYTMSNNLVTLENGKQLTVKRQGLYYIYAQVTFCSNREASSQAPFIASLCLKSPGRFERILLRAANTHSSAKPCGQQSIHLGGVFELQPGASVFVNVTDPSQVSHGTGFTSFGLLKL

[2] = biological target: T1, CD154 expressed on D1.1 Jurkat cells; assay: flow cytometry: inhibition of the binding of hCD40-mFc-PE to CD154-expressing D1.1 Jurkat cells by serially diluted antibody (Example 5)
Method: A flow cytometry-based assay was used to assess the binding of labeled CD40 to CD154-expressing D1.1 cells. D1.1 Jurkat cells (American Type Culture Collection) were maintained in RPMI 1640 medium (Gibco, 31870-025)) containing 10% (v/v) fetal calf serum (FCS), 2 mM glutamine (Invitrogen, 23030024), 1 mM sodium pyruvate (Invitrogen, 11360-039), 1% (v/v) D-(+)-glucose (Sigma, G8769) & 10 mM HEPES (Sigma, H0887). At time of assay, 100,000 D1.1 cells were incubated in 100 μL RPMI 1640 medium+10% FCS, in the presence or absence of serially diluted anti-CD154 antibody for 15 minutes at room temperature. 5 μL of a 1:75 dilution of hCD40-mFc-PE (Alexis Corp, ANC-504-050) was then added and incubated for a further 30 minutes at room temperature. After washing twice in phosphate-buffered saline (PBS) containing 1% (w/v) bovine serum albumin (BSA fraction V, Serologicals Proteins Inc, 81-068-5) and 0.02% (w/v) sodium azide (BDH, 103692K), cells were resuspended in 200 μL PBS/1% BSA/0.02% sodium azide and flow cytometry performed on a Becton Dickinson FACScan. The values for geometric mean fluorescence (FL2) were assessed in all cases.

[3] = biological target: T1, CD154 expressed on D1.1 Jurkat cells; assay: flow cytometry competition binding assay: serially diluted antibody against biotinylated 342 Fab on CD154-expressing D1.1 Jurkat cells, streptavidin-R-phycoerythrin detection (Example 6)
Method: A flow cytometry-based assay was used to assess the binding of anti-CD154 antibody to CD154-expressing D1.1 cells. D1.1 Jurkat cells (American Type Culture Collection) were maintained in RPMI 1640 medium (Gibco, 31870-025) containing 10% (v/v) fetal calf serum (FCS), 2 mM glutamine (BioWhittaker, 17-605E) and […] (Mediatech, 30002107). […] The cells were washed three times in FACS buffer with centrifugation at 290×g for 3 minutes in between washes. A 1:500 dilution of streptavadin-R-phycoerythrin conjugate (Jackson Immunoresearch, 016-110-084) in […] FACS buffer was added and the cells were incubated for one hour at 4° C. The cells were washed once and fixed in PBS with 3% formaldehyde at room temperature for 10 minutes. The cells were resuspended in FACS buffer and run on a FacsCalibur (BD). The values for geometric mean fluorescence (FL2) were assessed in all cases.

B1: 342 aglycosyl IgG4 (antibody, V domains shown)
VH: EVQLVESGGGLVQPGGSLRLSCAVSGFSSTNYHVHWVRQAPGKGLEWMGVIWGDGDTSYNSVLKSRFTISRDTSKNTVYLQMNSLRAEDTAVYYCARQLTHYYVLAAWGQGTLVTVSS
VL: DIQMTQSPSSLSASVGDRVTITCRASEDLYYNLAWYQRKPGKAPKLLIYDTYRLADGVPSRFSGSGSGTDYTLTISSLQPEDFASYYCQQYYKFPFTFGQGTKVEIKR
modifications: S228P and T299A (Kabat EU) are contained in SEQ ID NO: 72; not N-glycosylated
notes: also called aglycosylated hu342; hu342 aglyP-huIgG4
IC50 of inhibition of ICAM-1 (CD54) upregulation on CD40-expressing Ramos B cells co-cultured with CD154-expressing D1.1 Jurkat cells [1]: 0.048 µg/mL | IC50 [2]: 0.025 µg/mL | IC50 [3]: 0.035 nM

B2: 342 Di-Fab' (other)
heavy chain (Fab'): EVQLVESGGGLVQPGGSLRLSCAVSGFSSTNYHVHWVRQAPGKGLEWMGVIWGDGDTSYNSVLKSRFTISRDTSKNTVYLQMNSLRAEDTAVYYCARQLTHYYVLAAWGQGTLVTVSSASTKGPSVFPLAPSSKSTSGGTAALGCLVKDYFPEPVTVSWNSGALTSGVHTFPAVLQSSGLYSLSSVVTVPSSSLGTQTYICNVNHKPSNTKVDKKVEPKSCDKTHTCAA
light chain: DIQMTQSPSSLSASVGDRVTITCRASEDLYYNLAWYQRKPGKAPKLLIYDTYRLADGVPSRFSGSGSGTDYTLTISSLQPEDFASYYCQQYYKFPFTFGQGTKVEIKRTVAAPSVFIFPPSDEQLKSGTASVVCLLNNFYPREAKVQWKVDNALQSGNSQESVTEQDSKDSTYSLSSTLTLSKADYEKHKVYACEVTHQGLSSPVTKSFNRGEC
modifications: the two Fab' are cross-linked at the hinge; the linker is not described for this molecule
IC50 of inhibition of ICAM-1 (CD54) upregulation on CD40-expressing Ramos B cells co-cultured with CD154-expressing D1.1 Jurkat cells [1]: 0.022 µg/mL | IC50 [2]: 0.009 µg/mL

B3: 342 Tri-Fab'-PEG (other)
heavy chain (Fab'): EVQLVESGGGLVQPGGSLRLSCAVSGFSSTNYHVHWVRQAPGKGLEWMGVIWGDGDTSYNSVLKSRFTISRDTSKNTVYLQMNSLRAEDTAVYYCARQLTHYYVLAAWGQGTLVTVSSASTKGPSVFPLAPSSKSTSGGTAALGCLVKDYFPEPVTVSWNSGALTSGVHTFPAVLQSSGLYSLSSVVTVPSSSLGTQTYICNVNHKPSNTKVDKKVEPKSCDKTHTCAA
light chain: DIQMTQSPSSLSASVGDRVTITCRASEDLYYNLAWYQRKPGKAPKLLIYDTYRLADGVPSRFSGSGSGTDYTLTISSLQPEDFASYYCQQYYKFPFTFGQGTKVEIKRTVAAPSVFIFPPSDEQLKSGTASVVCLLNNFYPREAKVQWKVDNALQSGNSQESVTEQDSKDSTYSLSSTLTLSKADYEKHKVYACEVTHQGLSSPVTKSFNRGEC
modifications: the three Fab' are cross-linked and PEGylated; the chemistry is not described
IC50 of inhibition of ICAM-1 (CD54) upregulation on CD40-expressing Ramos B cells co-cultured with CD154-expressing D1.1 Jurkat cells [1]: 0.036 µg/mL | IC50 [2]: 0.008 µg/mL

B4: 342 Tri-Fab' (other)
heavy chain (Fab'): EVQLVESGGGLVQPGGSLRLSCAVSGFSSTNYHVHWVRQAPGKGLEWMGVIWGDGDTSYNSVLKSRFTISRDTSKNTVYLQMNSLRAEDTAVYYCARQLTHYYVLAAWGQGTLVTVSSASTKGPSVFPLAPSSKSTSGGTAALGCLVKDYFPEPVTVSWNSGALTSGVHTFPAVLQSSGLYSLSSVVTVPSSSLGTQTYICNVNHKPSNTKVDKKVEPKSCDKTHTCAA
light chain: DIQMTQSPSSLSASVGDRVTITCRASEDLYYNLAWYQRKPGKAPKLLIYDTYRLADGVPSRFSGSGSGTDYTLTISSLQPEDFASYYCQQYYKFPFTFGQGTKVEIKRTVAAPSVFIFPPSDEQLKSGTASVVCLLNNFYPREAKVQWKVDNALQSGNSQESVTEQDSKDSTYSLSSTLTLSKADYEKHKVYACEVTHQGLSSPVTKSFNRGEC
modifications: the three Fab' are cross-linked at the hinge; the linker is not described
IC50 of inhibition of ICAM-1 (CD54) upregulation on CD40-expressing Ramos B cells co-cultured with CD154-expressing D1.1 Jurkat cells [1]: 0.031 µg/mL | IC50 [2]: 0.009 µg/mL
